Target: T1, FBXW24‐EGFP‐Strep II protein, purified from Sf9 (mouse, UniProt E9PXM9 1-466)
T1 construct: FBXW24 (F-box and WD-40 domain protein 24), mouse, gene ID 382106; also called FBXW24‐StrepII; in vitro purified FBXW24; source: Sf9 (Bac-to-bac baculovirus), purified (Ni-NTA); not shown: EGFP, C-terminal, kept; Strep II, C-terminal, kept
T1 sequence (looked up): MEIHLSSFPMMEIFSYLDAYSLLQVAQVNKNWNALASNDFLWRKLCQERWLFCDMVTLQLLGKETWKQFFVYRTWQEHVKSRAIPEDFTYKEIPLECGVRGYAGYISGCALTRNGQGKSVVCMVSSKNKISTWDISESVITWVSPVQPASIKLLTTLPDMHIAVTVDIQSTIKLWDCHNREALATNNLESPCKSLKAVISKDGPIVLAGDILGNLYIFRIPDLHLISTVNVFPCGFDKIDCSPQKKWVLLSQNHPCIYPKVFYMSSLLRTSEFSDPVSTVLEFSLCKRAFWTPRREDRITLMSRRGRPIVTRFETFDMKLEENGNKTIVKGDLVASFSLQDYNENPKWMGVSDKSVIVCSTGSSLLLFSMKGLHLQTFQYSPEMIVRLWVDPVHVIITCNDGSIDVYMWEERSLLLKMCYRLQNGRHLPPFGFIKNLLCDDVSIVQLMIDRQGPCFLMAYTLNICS
Assay: co-IP; co-IP between in vitro purified proteins; 1 μg SYCP3‐Flag protein and/or FBXW24‐StrepII protein in each reaction
Settings: both partners purified

B1: SYCP3‐TagRFP‐Flag protein, purified from Sf9 (natural protein, mouse, UniProt P70281 1-254, looked up)
chain: MLRGCGDSDSSPEPLSKHLKMVPGGRKHSGKSGKPPLVDQPKKAFDFEKDDKDLSGSEEDVADEKAPVIDKHGKKRSAGIIEDVGGEVQNMLEKFGADINKALLAKRKRIEMYTKASFKASNQKIEQIWKTQQEEIQKLNNEYSQQFMNVLQQWELDIQKFEEQGEKLSNLFRQQQKIFQQSRIVQSQRMFAMKQIHEQFIKSLEDVEKNNDNLFTGTQSELKKEMAMLQKKVMMETQQQEMANVRKSLQSMLF
notes: SYCP3, synaptonemal complex lateral element protein; The purified protein ran as several bands, and the upper bands carried ubiquitin; also called SYCP3‐Flag; in vitro purified SYCP3; source: Sf9 (Bac-to-bac baculovirus), purified (Ni-NTA); not shown: TagRFP, C-terminal, kept; Flag, C-terminal, kept
binding result: binds

Source: publication PMC9299759, “FBXW24 controls female meiotic prophase progression by regulating SYCP3 ubiquitination” (Clinical and Translational Medicine, 2022)
